± gives the uncertainty stated by the source.
B1: Histone H1t, residues 44 to 112; numbered along this chain, P22492 (parent)
chain: VSKLITEALSVSQERVGMSLVALKKALAAAGYDVEKNNSRIKLSLKSLVNKGILVQTRGTGASGSFKLS

Variants of: B1
Test: abundance fitness (aPCA) (normalised: wild type 0, dead -1); higher = more abundant; growth selection in yeast, the domain comes from the species named
Details: Homo sapiens
In the case of VSKLITEALSVSQERVGMSLVALKKALAPAGYDVEKNNSRIKLSLKSLVNKGILVQTRGTGASGSFKLS [A29P], the abundance fitness is reported as -0.491 ± 0.087. In the case of VSKLITEALSVSQERVGMSLVALKKALAVAGYDVEKNNSRIKLSLKSLVNKGILVQTRGTGASGSFKLS [A29V], the abundance fitness is reported as -0.215 ± 0.038. In the case of VSKLITEALSVSQERVGMSLVALKKALARAGYDVEKNNSRIKLSLKSLVNKGILVQTRGTGASGSFKLS [A29R], the abundance fitness is reported as 0.002 ± 0.044. In the case of VSKLITEALSVSQERVGMSLVALKKALAKAGYDVEKNNSRIKLSLKSLVNKGILVQTRGTGASGSFKLS [A29K], the abundance fitness is reported as 0.153 ± 0.03. VSKLITEALSVSQERVGMSLVALKKALAEAGYDVEKNNSRIKLSLKSLVNKGILVQTRGTGASGSFKLS [A29E] gave an abundance fitness of 0.066 ± 0.053. VSKLITEALSVSQERVGMSLVALKKALAFAGYDVEKNNSRIKLSLKSLVNKGILVQTRGTGASGSFKLS [A29F] showed an abundance fitness of -0.276 ± 0.027. VSKLITEALSVSQERVGMSLVALKKALAHAGYDVEKNNSRIKLSLKSLVNKGILVQTRGTGASGSFKLS [A29H] gave an abundance fitness of -0.236 ± 0.056. VSKLITEALSVSQERVGMSLVALKKALASAGYDVEKNNSRIKLSLKSLVNKGILVQTRGTGASGSFKLS [A29S] showed an abundance fitness of -0.039 ± 0.037. With VSKLITEALSVSQERVGMSLVALKKALALAGYDVEKNNSRIKLSLKSLVNKGILVQTRGTGASGSFKLS [A29L] the abundance fitness was -0.255 ± 0.027. In the case of VSKLITEALSVSQERVGMSLVALKKALAAAEYDVEKNNSRIKLSLKSLVNKGILVQTRGTGASGSFKLS [G31E], the abundance fitness is reported as -0.89 ± 0.3. With VSKLITEALSVSQERVGMSLVALKKALAAACYDVEKNNSRIKLSLKSLVNKGILVQTRGTGASGSFKLS [G31C] the abundance fitness was -0.27 ± 0.22. VSKLITEALSVSQERVGMSLVALKKALAAAAYDVEKNNSRIKLSLKSLVNKGILVQTRGTGASGSFKLS [G31A] showed an abundance fitness of -0.202 ± 0.16. VSKLITEALSVSQERVGMSLVALKKALAAADYDVEKNNSRIKLSLKSLVNKGILVQTRGTGASGSFKLS [G31D] showed an abundance fitness of -0.752 ± 0.22. Variant VSKLITEALSVSQERVGMSLVALKKALAASGYDVEKNNSRIKLSLKSLVNKGILVQTRGTGASGSFKLS [A30S] has an abundance fitness of -0.09 ± 0.04. VSKLITEALSVSQERVGMSLVALKKALAAVGYDVEKNNSRIKLSLKSLVNKGILVQTRGTGASGSFKLS [A30V] showed an abundance fitness of -0.158 ± 0.036. In the case of VSKLITEALSVSQERVGMSLVALKKALAAMGYDVEKNNSRIKLSLKSLVNKGILVQTRGTGASGSFKLS [A30M], the abundance fitness is reported as 0.021 ± 0.043. In the case of VSKLITEALSVSQERVGMSLVALKKALAAGGYDVEKNNSRIKLSLKSLVNKGILVQTRGTGASGSFKLS [A30G], the abundance fitness is reported as -0.162 ± 0.045. VSKLITEALSVSQERVGMSLVALKKALAAHGYDVEKNNSRIKLSLKSLVNKGILVQTRGTGASGSFKLS [A30H] showed an abundance fitness of -0.312 ± 0.09. Work on VSKLITEALSVSQERVGMSLVALKKALAATGYDVEKNNSRIKLSLKSLVNKGILVQTRGTGASGSFKLS [A30T] yielded an abundance fitness of -0.048 ± 0.049. For VSKLITEALSVSQERVGMSLVALKKALAAIGYDVEKNNSRIKLSLKSLVNKGILVQTRGTGASGSFKLS [A30I], the abundance fitness was -0.318 ± 0.087. With VSKLITEALSVSQERVGMSLVALKKALAACGYDVEKNNSRIKLSLKSLVNKGILVQTRGTGASGSFKLS [A30C] the abundance fitness was -0.136 ± 0.059. For VSKLITEALSVSQERVGMSLVALKKALAANGYDVEKNNSRIKLSLKSLVNKGILVQTRGTGASGSFKLS [A30N], the abundance fitness was -0.271 ± 0.1. For VSKLITEALSVSQERVGMSLVALKKALAARGYDVEKNNSRIKLSLKSLVNKGILVQTRGTGASGSFKLS [A30R], the abundance fitness was 0.051 ± 0.038. For VSKLITEALSVSQERVGMSLVALKKALAAPGYDVEKNNSRIKLSLKSLVNKGILVQTRGTGASGSFKLS [A30P], the abundance fitness was -0.364 ± 0.052. Work on VSKLITEALSVSQERVGMSLVALKKALAAQGYDVEKNNSRIKLSLKSLVNKGILVQTRGTGASGSFKLS [A30Q] yielded an abundance fitness of -0.137 ± 0.053. In the case of VSKLITEALSVSQERVGMSLVALKKALAAWGYDVEKNNSRIKLSLKSLVNKGILVQTRGTGASGSFKLS [A30W], the abundance fitness is reported as -0.15 ± 0.041. In the case of VSKLITEALSVSQERVGMSLVALKKALAAEGYDVEKNNSRIKLSLKSLVNKGILVQTRGTGASGSFKLS [A30E], the abundance fitness is reported as -0.404 ± 0.067. For VSKLITEALSVSQERVGMSLVALKKALAAFGYDVEKNNSRIKLSLKSLVNKGILVQTRGTGASGSFKLS [A30F], the abundance fitness was -0.368 ± 0.055. VSKLITEALSVSQERVGMSLVALKKALAADGYDVEKNNSRIKLSLKSLVNKGILVQTRGTGASGSFKLS [A30D] showed an abundance fitness of -0.328 ± 0.093. In the case of VSKLITEALSVSQERVGMSLVALKKALAAYGYDVEKNNSRIKLSLKSLVNKGILVQTRGTGASGSFKLS [A30Y], the abundance fitness is reported as -0.266 ± 0.07. Variant VSKLITEALSVSQERVGMSLVALKKALAALGYDVEKNNSRIKLSLKSLVNKGILVQTRGTGASGSFKLS [A30L] has an abundance fitness of -0.224 ± 0.032. VSKLITEALSVSQERVGMSLVALKKRLAAAGYDVEKNNSRIKLSLKSLVNKGILVQTRGTGASGSFKLS [A26R] showed an abundance fitness of -0.415 ± 0.11. Variant VSKLITEALSVSQERVGMSLVALKKQLAAAGYDVEKNNSRIKLSLKSLVNKGILVQTRGTGASGSFKLS [A26Q] has an abundance fitness of -0.381 ± 0.073. Variant VSKLITEALSVSQERVGMSLVALKKVLAAAGYDVEKNNSRIKLSLKSLVNKGILVQTRGTGASGSFKLS [A26V] has an abundance fitness of -0.064 ± 0.075. VSKLITEALSVSQERVGMSLVALKKSLAAAGYDVEKNNSRIKLSLKSLVNKGILVQTRGTGASGSFKLS [A26S] showed an abundance fitness of -0.121 ± 0.043. In the case of VSKLITEALSVSQERVGMSLVALKKTLAAAGYDVEKNNSRIKLSLKSLVNKGILVQTRGTGASGSFKLS [A26T], the abundance fitness is reported as -0.106 ± 0.062. Work on VSKLITEALSVSQERVGMSLVALKKPLAAAGYDVEKNNSRIKLSLKSLVNKGILVQTRGTGASGSFKLS [A26P] yielded an abundance fitness of -0.906 ± 0.19. Variant VSKLITEALSVSQERVGMSLVALKKMLAAAGYDVEKNNSRIKLSLKSLVNKGILVQTRGTGASGSFKLS [A26M] has an abundance fitness of -0.033 ± 0.035. In the case of VSKLITEALSVSQERVGMSLVALKKNLAAAGYDVEKNNSRIKLSLKSLVNKGILVQTRGTGASGSFKLS [A26N], the abundance fitness is reported as -0.401 ± 0.051.

— the Human Domainome abundance scans (Beltran et al. 2025)
